# Data as given in article PMC13038412, “Hetero-oligomerization drives structural plasticity of eukaryotic peroxiredoxins” (Nature Chemical Biology, 2026).
# T1: His6-Tsa2-EPEA (S. cerevisiae)
# T1 sequence (Q04120 1-196, looked up): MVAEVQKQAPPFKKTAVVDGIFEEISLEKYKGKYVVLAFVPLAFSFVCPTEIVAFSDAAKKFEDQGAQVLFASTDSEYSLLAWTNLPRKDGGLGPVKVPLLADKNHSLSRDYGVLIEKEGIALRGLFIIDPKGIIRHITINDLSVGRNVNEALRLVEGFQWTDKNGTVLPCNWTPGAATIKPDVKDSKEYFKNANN
# T2: His6-Tsa2 (S. cerevisiae, UniProt Q04120 1-196)
# T2 construct: Tsa2, Prx1/AhpC-type peroxiredoxin of Saccharomyces cerevisiae; TSA2 from pET15b/His6-TSA2; calculated mass of His6-Tsa2 23.8 kDa; also called His6-tagged Tsa2; His-Tsa2; source: E. coli SHuffle T7 Express, purified (Ni-NTA) from pET15b; or coexpressed with Strep-Tsa1 / Strep-Tsa1ΔCR from pCOLADuet and tandem purified (Ni-NTA, StrepTactin); not shown: His6, N-terminal, kept
# T2 sequence (looked up): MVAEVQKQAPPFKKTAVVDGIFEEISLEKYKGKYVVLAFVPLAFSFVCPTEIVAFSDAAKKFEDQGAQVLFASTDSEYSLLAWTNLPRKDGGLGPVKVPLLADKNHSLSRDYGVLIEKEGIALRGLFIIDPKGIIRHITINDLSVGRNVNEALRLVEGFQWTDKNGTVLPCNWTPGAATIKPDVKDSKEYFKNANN
# Legend:
# [1] = molecular target: roGFP2-LiPrx1 (L. infantum); test: native gel or EMSA; clear native PAGE of lysates from Δtsa1Δtsa2 yeast coexpressing a roGFP2-peroxiredoxin fusion with an empty vector or an unfused peroxiredoxin; imaged for GFP fluorescence
# [2] = molecular target: T1, His6-Tsa2-EPEA (S. cerevisiae); test: negative-stain EM; 0.02 mg/ml purified sample in 10 mM HEPES/NaOH pH 8, 137 mM NaCl, 2 mM KCl; 2% uranyl acetate; hetero-oligomer: the 0.88 mol/mol fraction
# [3] = molecular target: T1, His6-Tsa2-EPEA (S. cerevisiae); test: MALDI-TOF MS of disulfide-linked dimers; purified homo-oligomers and three tandem-purified hetero-oligomer fractions in 0.1% TFA, DHAP matrix, linear positive mode; dimers reducible with DTT
# [4] = molecular target: roGFP2-AtBAS1B (A. thaliana); test: native gel or EMSA; clear native PAGE of lysates from Δtsa1Δtsa2 yeast coexpressing a roGFP2-peroxiredoxin fusion with an empty vector or an unfused peroxiredoxin; imaged for GFP fluorescence
# [5] = molecular target: the molecule itself; test: mass photometry; 5 µM purified samples incubated 15 min at 20, 30, 40 or 45 °C, diluted 25x into 10 mM HEPES/NaOH pH 8, 137 mM NaCl, 2 mM KCl; Refeyn OneMP; disulfide-linked oxidation form
# [6] = molecular target: the molecule itself; test: negative-stain EM; 0.02 mg/ml purified sample in 10 mM HEPES/NaOH pH 8, 137 mM NaCl, 2 mM KCl; 2% uranyl acetate; hetero-oligomer: the 0.88 mol/mol fraction
# [7] = molecular target: the molecule itself; test: MALDI-TOF MS of disulfide-linked dimers; purified homo-oligomers and three tandem-purified hetero-oligomer fractions in 0.1% TFA, DHAP matrix, linear positive mode; dimers reducible with DTT
# [8] = molecular target: T2, His6-Tsa2; test: pull-down; both genes coexpressed from one pCOLADuet plasmid in E. coli; tandem-affinity purification Ni-NTA then StrepTactin, or vice versa; eluates on reducing SDS-PAGE, western blot (semiquantitative, calibrated with individually purified proteins); conditions: partners not purified
# [9] = molecular target: the molecule itself; test: native gel or EMSA; clear native PAGE (3-12%) of yeast lysates, imaged for GFP fluorescence; roGFP2 fusions expressed from the genomic loci; cells untreated or treated with 1 mM H2O2 for the indicated times; lysis with 20 mM NEM
# [10] = molecular target: the molecule itself; test: native gel or EMSA; clear native PAGE of lysates from Δtsa1Δtsa2 yeast coexpressing a roGFP2-peroxiredoxin fusion with an empty vector or an unfused peroxiredoxin; imaged for GFP fluorescence
molecule,measurement,setting,value
roGFP2-LiPrx1 (enzyme),stoichiometry N,[1],10
His6-Tsa2-EPEA (enzyme),stoichiometry N,[2],10
same,stoichiometry N,[3],2
roGFP2-AtBAS1B (enzyme),stoichiometry N,[4],10
"His6-GFP-TEV-Tsa2 (enzyme, S. cerevisiae, UniProt Q04120 1-196, looked up, Tsa2 of Saccharomyces cerevisiae, behind His6, GFP and a TEV site; Probably made in E. coli (AhpC contamination was detected); also called Tsa2 with an N-terminal GFP tag; not shown: His6, N-terminal, kept; GFP, N-terminal, kept) MVAEVQKQAPPFKKTAVVDGIFEEISLEKYKGKYVVLAFVPLAFSFVCPTEIVAFSDAAKKFEDQGAQVLFASTDSEYSLLAWTNLPRKDGGLGPVKVPLLADKNHSLSRDYGVLIEKEGIALRGLFIIDPKGIIRHITINDLSVGRNVNEALRLVEGFQWTDKNGTVLPCNWTPGAATIKPDVKDSKEYFKNANN",binding result,[5],binds
"Strep-Tsa1 (enzyme, S. cerevisiae, UniProt P34760 1-196, looked up, Tsa1, Prx1/AhpC-type peroxiredoxin of Saccharomyces cerevisiae; TSA1 subcloned from pET15b/His-TSA1; calculated mass of Strep-Tsa1 22.9 kDa; Dimer-decamer equilibrium; also called Strep-tagged Tsa1; Tsa1 homo-oligomer; source: E. coli SHuffle T7 Express, purified (StrepTactin) from pET45b; or coexpressed with His6-Tsa2 / His6-Tsa2-EPEA from pCOLADuet-1 and tandem purified (Ni-NTA, StrepTactin); …) MVAQVQKQAPTFKKTAVVDGVFDEVSLDKYKGKYVVLAFIPLAFTFVCPTEIIAFSEAAKKFEEQGAQVLFASTDSEYSLLAWTNIPRKEGGLGPINIPLLADTNHSLSRDYGVLIEEEGVALRGLFIIDPKGVIRHITINDLPVGRNVDEALRLVEAFQWTDKNGTVLPCNWTPGAATIKPTVEDSKEYFEAANK",stoichiometry N,[6],10
same,stoichiometry N,[7],2
same,stoichiometry N,[8],~1 Strep-Tsa1 per His6-Tsa2
"roGFP2-Tsa1 (enzyme, S. cerevisiae, UniProt P34760 1-196, looked up, Tsa1 of Saccharomyces cerevisiae, roGFP2-tagged version replacing TSA1 at its endogenous locus; source: S. cerevisiae, gene integrated at the TSA1 genomic locus under the native promoter, in lysate) MVAQVQKQAPTFKKTAVVDGVFDEVSLDKYKGKYVVLAFIPLAFTFVCPTEIIAFSEAAKKFEEQGAQVLFASTDSEYSLLAWTNIPRKEGGLGPINIPLLADTNHSLSRDYGVLIEEEGVALRGLFIIDPKGVIRHITINDLPVGRNVDEALRLVEAFQWTDKNGTVLPCNWTPGAATIKPTVEDSKEYFEAANK",stoichiometry N,[9],2
"roGFP2-AtBAS1A (enzyme, A. thaliana, UniProt Q96291 66-266, looked up, AtBAS1A, Prx1/AhpC-type peroxiredoxin of the chloroplast stroma of Arabidopsis thaliana; source: Δtsa1Δtsa2 yeast, expressed from a plasmid, in lysate) KAQADDLPLVGNKAPDFEAEAVFDQEFIKVKLSDYIGKKYVILFFYPLDFTFVCPTEITAFSDRHSEFEKLNTEVLGVSVDSVFSHLAWVQTDRKSGGLGDLNYPLISDVTKSISKSFGVLIHDQGIALRGLFIIDKEGVIQHSTINNLGIGRSVDETMRTLQALQYIQENPDEVCPAGWKPGEKSMKPDPKLSKEYFSAI",stoichiometry N,[10],2
